According to doi:10.1101/2021.09.14.460262 (bioRxiv, 2021):

Key:
[1] = target: mVDAC1 labelled with Alexa Fluor 532 C5-maleimide (UniProt Q60932); test: MST
[2] = target: mVDAC1 labelled with Alexa Fluor 532 C5-maleimide (UniProt Q60932 14-296, Alexa Fluor 532 C5-maleimide label); test: MST
mVDAC1 labelled with Alexa Fluor 532 C5-maleimide (UniProt Q60932 14-296, Alexa Fluor 532 C5-maleimide label), sequence (Q60932 14-296): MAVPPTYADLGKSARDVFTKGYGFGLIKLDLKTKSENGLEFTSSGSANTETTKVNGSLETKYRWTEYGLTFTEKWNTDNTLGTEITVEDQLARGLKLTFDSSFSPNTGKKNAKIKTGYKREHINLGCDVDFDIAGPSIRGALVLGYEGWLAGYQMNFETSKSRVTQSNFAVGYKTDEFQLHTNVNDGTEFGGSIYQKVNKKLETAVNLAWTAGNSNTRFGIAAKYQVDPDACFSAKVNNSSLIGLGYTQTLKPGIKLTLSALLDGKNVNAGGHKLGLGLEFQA

mVDAC1 labelled with Alexa Fluor 532 C5-maleimide (UniProt Q60932), sequence (Q60932 14-296): as above

| Kd [1] | Kd [2] | Molecule |
| --- | --- | --- |
| 37.1 µM |  | caspase 8-cleaved recombinant BID (His-rtBID) (domain or fragment) |
|  | 1420 µM | recombinant full length His6-BID (natural protein, UniProt P70444 1-195, looked up) MDSEVSNGSGLGAEHITDLLVFGFLQSSGCTRQELEVLGRELPVQAYWEADLEDELQTDGSQASRSFNQGRIEPDSESQEEIIHNIARHLAQIGDEMDHNIQPTLVRQLAAQFMNGSLSEEDKRNCLAKALDEVKTAFPRDMENDKAMLIMTMLLAKKVASHAPSLLRDVFHTTVNFINQNLFSYVRNLVRNEMD |
